From IntAct's records for PubMed 20890305 come the findings set out here.

For the assay, the target named is MAP3K11 (UniProt Q16584).
Chain of MAP3K11 (Q16584 whole entry, looked up): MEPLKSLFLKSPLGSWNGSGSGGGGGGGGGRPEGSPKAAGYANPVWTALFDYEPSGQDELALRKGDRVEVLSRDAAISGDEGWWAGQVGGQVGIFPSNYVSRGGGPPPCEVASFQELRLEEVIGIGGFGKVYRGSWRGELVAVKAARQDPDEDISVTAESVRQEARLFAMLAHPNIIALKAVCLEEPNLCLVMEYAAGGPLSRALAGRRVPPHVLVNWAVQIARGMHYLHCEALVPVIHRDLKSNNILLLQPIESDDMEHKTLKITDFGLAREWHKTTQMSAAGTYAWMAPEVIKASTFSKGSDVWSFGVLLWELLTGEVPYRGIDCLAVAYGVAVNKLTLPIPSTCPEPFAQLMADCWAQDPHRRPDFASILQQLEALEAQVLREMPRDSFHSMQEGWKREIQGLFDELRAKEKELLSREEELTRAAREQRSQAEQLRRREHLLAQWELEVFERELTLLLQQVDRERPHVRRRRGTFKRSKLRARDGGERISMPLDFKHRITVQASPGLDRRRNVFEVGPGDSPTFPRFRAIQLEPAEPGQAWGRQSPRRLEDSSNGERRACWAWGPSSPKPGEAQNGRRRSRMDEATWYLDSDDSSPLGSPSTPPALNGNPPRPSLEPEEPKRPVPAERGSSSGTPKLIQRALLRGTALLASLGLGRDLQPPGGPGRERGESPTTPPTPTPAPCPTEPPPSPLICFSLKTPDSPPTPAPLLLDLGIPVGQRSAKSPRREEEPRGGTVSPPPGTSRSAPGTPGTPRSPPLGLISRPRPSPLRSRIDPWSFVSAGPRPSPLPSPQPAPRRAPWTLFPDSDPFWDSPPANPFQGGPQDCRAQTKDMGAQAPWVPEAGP

Chain of Cell division control protein 42 homolog (Homo sapiens), P60953 T17N (P60953 whole entry T17N): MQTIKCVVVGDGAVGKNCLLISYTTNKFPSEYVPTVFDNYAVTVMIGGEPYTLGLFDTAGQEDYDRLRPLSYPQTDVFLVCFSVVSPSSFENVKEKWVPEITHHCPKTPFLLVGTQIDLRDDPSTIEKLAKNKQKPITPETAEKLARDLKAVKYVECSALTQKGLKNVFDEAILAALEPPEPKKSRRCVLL
Chain of Cell division control protein 42 homolog (Homo sapiens), P60953 G12V (P60953 whole entry G12V): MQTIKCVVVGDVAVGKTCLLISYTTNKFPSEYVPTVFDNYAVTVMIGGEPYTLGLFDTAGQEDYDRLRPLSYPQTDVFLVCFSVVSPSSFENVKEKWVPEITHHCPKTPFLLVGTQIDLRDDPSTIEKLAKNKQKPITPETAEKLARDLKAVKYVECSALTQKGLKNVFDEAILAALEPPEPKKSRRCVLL

Turning to “Cell division control protein 42 homolog (Homo sapiens), P60953 G12V”, the “effect of a mutation on the interaction” value is on record as “decreasing interaction”.

In the case of “Cell division control protein 42 homolog (Homo sapiens), P60953 T17N”, the “effect of a mutation on the interaction” value is on record as “disrupting interaction”.
